Source: publication PMC9140718

Columns and labels:
[1] = biological target: plasma FXI of Maine Coon cats homozygous for the M516 variant (feline (endogenous in Maine Coon cat plasma)); test: non-reducing SDS-PAGE with Western blot; citrated plasma (1 µL) on non-reducing 7.5% polyacrylamide gels; detected with biotinylated IgG 14E11 and streptavidin-horseradish peroxidase
[2] = biological target: plasma FXI of Maine Coon cats homozygous for wild-type FXI (feline (endogenous in Maine Coon cat plasma)); test: as above
[3] = biological target: recombinant wild-type feline factor XI (fFXI-V516) (feline (Felis catus)); test: SDS-PAGE under non-reducing and reducing conditions; purified FXI on a 7.5% polyacrylamide gel, Coomassie blue stained; homodimer unreduced, monomer reduced
[4] = biological target: recombinant variant feline factor XI (fFXI-M516) (feline (Felis catus)); test: as above
[5] = biological target: plasma-derived human FXI (pFXI) (human); test: as above
[6] = biological target: recombinant wild-type human factor XI (hFXI-V516) (human); test: as above

“plasma FXI of Maine Coon cats homozygous for the M516 variant (natural protein)” was tested. Which stoichiometry N [1] did it give?
Its stoichiometry N is 2.

For “plasma FXI of Maine Coon cats homozygous for wild-type FXI (natural protein)”, which stoichiometry N [2] is on record?
Its stoichiometry N is 2.

“recombinant wild-type feline factor XI (fFXI-V516) (natural protein)” was tested. Which stoichiometry N [3] did it give?
The stoichiometry N was 2.

For “recombinant variant feline factor XI (fFXI-M516) (natural protein)”, which stoichiometry N [4] is on record?
The stoichiometry N was 2.

“plasma-derived human FXI (pFXI) (natural protein)” was tested. Which stoichiometry N [5] did it give?
Its stoichiometry N is 2.

With “recombinant wild-type human factor XI (hFXI-V516) (natural protein)” as the substance, how does the stoichiometry N [6] read?
The stoichiometry N was 2.
